From article PMC8286830 (Biochemical Journal, 2021) come the findings set out here.

As usually defined, the Kd is the free concentration of one partner at which half of the binding sites on the other are occupied at equilibrium, for simple one-to-one binding. A higher Kd goes with lower affinity. The term stoichiometry N denotes a count of units in the complex or per binding partner.

Like-named read-outs stand apart in the source and are kept apart here.

The labels stand for the following.
B2: C-terminal domain of TgCEN1 (C-TgCEN1, 95–169 aa) (domain or fragment)
chain: not shown

Series [1] deals with the molecule itself. Kind of series: dynamic light scattering.
Series [2] deals with T1, truncated variant of TgCEN1 lacking the first 21 residues (Δ21TgCEN1, 22–169) (Toxoplasma gondii, UniProt A0A125YHX7 22-169).
T1 sequence (looked up): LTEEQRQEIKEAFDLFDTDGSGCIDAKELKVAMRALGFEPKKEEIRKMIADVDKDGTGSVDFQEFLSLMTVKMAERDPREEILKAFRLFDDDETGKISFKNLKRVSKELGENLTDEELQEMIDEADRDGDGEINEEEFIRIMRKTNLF
Kind of series: ITC. For orientation: ITC needs no label: the signal is the heat of the interaction.

Series [3] concerns the target B2. Kind of series: ITC.
For series [4], the target named is T1, truncated variant of TgCEN1 lacking the …. Kind of series: ITC. The source holds these as a separate data set.
For series [5], the target named is T2, N-terminal domain of TgCEN1 lacking the first 21 residues (Δ21N-TgCEN1, 22–94 aa) (Toxoplasma gondii, UniProt A0A125YHX7 22-94).
T2 sequence (looked up): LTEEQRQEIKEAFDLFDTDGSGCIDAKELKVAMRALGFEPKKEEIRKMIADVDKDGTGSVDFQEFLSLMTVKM
Description: ITC.

For series [6], the target named is B2. Description: ITC. The source holds these as a separate data set.
Series [7] deals with the molecule itself. Kind of series: dynamic light scattering. This is another data set of the same source.

B1: N-terminal domain of TgCEN1 (N-TgCEN1, 1–94 aa) (domain or fragment, Toxoplasma gondii, UniProt A0A125YHX7 1-94, looked up)
chain: MHSRKGASSLPRGRGAGKKTELTEEQRQEIKEAFDLFDTDGSGCIDAKELKVAMRALGFEPKKEEIRKMIADVDKDGTGSVDFQEFLSLMTVKM
Take B1: in the series “dynamic light scattering [1]”, the binding result was “binds”.
Take NWKLLAKGLLIRERLKR [P17-XPC peptide (17-residue peptide of the human xeroderma pigmentosum group C protein, N847-R863)]: in series [2], binding was characterised by a dissociation constant (Kd) of 59.1 nM, the dH is -31.5 kcal/mol and the “stoichiometry N” value came to 0.9. Further, in series [3], the Kd turned out to be 50.1 nM, the dH is -28.4 kcal/mol and the “stoichiometry N” value is 0.8. For the same molecule, in series [4], the “dH of site 1 (high-affinity site, two-site model)” value is -23.8 kcal/mol and the “dH of site 2 (low-affinity site, two-site model)” value was -12.1 kcal/mol. Also, in series [5], the Kd turned out to be 396 nM, the dH was -17.7 kcal/mol and the “stoichiometry N” value is 0.7. Moreover, in series [6], the Kd came out at 6.7 nM, the dH is -22.9 kcal/mol and the “stoichiometry N” value came out at 0.8.
With B2, the binding result in “dynamic light scattering [7]” is “binds”.
